Reference: the Immune Epitope Database (IEDB)
pKd: −log10 of the molar value.

How the values were obtained:
Experiment in all cases: IEDB peptide-MHC binding, purified MHC/competitive/radioactivity; filed as Kd, often an IC50 or EC50 that approximates it; ≥ and ≤ were set here for values at or beyond the usual limits of such assays
HLA-A*33:01 = biological target: HLA-A*33:01
HLA-A*68:01 = biological target: HLA-A*68:01
HLA-A*31:01 = biological target: HLA-A*31:01
HLA-A*03:01 = biological target: HLA-A*03:01
HLA-A*11:01 = biological target: HLA-A*11:01
[1] = source organism: Vaccinia virus WR
[2] = source organism: Dengue virus 4 Philippines/H241/1956
[3] = source organism: Dengue virus 3 Martinique/1243/1999
[4] = source organism: Mammarenavirus juninense
[5] = source organism: Mammarenavirus guanaritoense
[6] = source organism: Dengue virus 2 Jamaica/1409/1983
[7] = source organism: SARS coronavirus Tor2
[8] = source organism: Mammarenavirus machupoense
[9] = source organism: Mammarenavirus brazilense
[10] = source organism: Dengue virus 1 Brazil/97-11/1997
[11] = source organism: Lassa virus Josiah

| Sequence | pKd (HLA-A*33:01; [1]) | pKd (HLA-A*68:01; [1]) | pKd (HLA-A*31:01; [1]) | pKd (HLA-A*03:01; [1]) | pKd (HLA-A*11:01; [1]) | also measured |
| --- | --- | --- | --- | --- | --- | --- |
| IFPGDKTSY | ≤ 4.11 | 4.75 | ≤ 4.25 | 4.94 | 4.93 |  |
| IIFLKLFKK | 8.31 | 7.88 | 8.25 | 8.06 | 8.35 |  |
| ILIKRRQQK |  |  |  |  |  | pKd (HLA-A*03:01; source organism: Homo sapiens): 7.54 |
| ISLGLILLK |  |  |  |  |  | pKd (HLA-A*03:01; [2]): 7.51; pKd (HLA-A*11:01; [2]): 8.92 |
| KIIAVFDSK | 5.10 | 6.32 | 6.90 | 8.09 | 8.18 |  |
| KLTYQNKVVK |  |  |  |  |  | pKd (HLA-A*03:01; [3]): 7.18 |
| KMLLNRFTTR |  |  |  |  |  | pKd (HLA-A*31:01; [2]): 8.42 |
| KSTVKLVQR | 5.83 | 5.82 | 8.35 | 4.78 | 5.85 |  |
| KYIHCFRKPH |  |  |  |  |  | pKd (HLA-A*33:01; [4]): ≤ 4.34; pKd (HLA-A*68:01; [4]): ≤ 4.15; pKd (HLA-A*31:01; [4]): 7.90; pKd (HLA-A*03:01; [4]): ≤ 4.15; pKd (HLA-A*11:01; [4]): ≤ 4.16 |
| LCCSLDHSK |  |  |  |  |  | pKd (HLA-A*33:01; [5]): 5.13; pKd (HLA-A*68:01; [5]): ≤ 4.49; pKd (HLA-A*31:01; [5]): 6.09; pKd (HLA-A*03:01; [5]): ≤ 4.47; pKd (HLA-A*11:01; [5]): ≤ 4.42 |
| LFIDRGSIK | 5.95 | 5.89 | 5.67 | 5.76 | 4.84 |  |
| LIMFEQYFIY | 5.09 | 5.76 | 4.85 | 5.99 | 6.87 |  |
| LINRFTMKHK |  |  |  |  |  | pKd (HLA-A*03:01; [6]): 7.90 |
| LLDSYFVVK |  |  |  |  |  | pKd (HLA-A*33:01; [7]): 4.90; pKd (HLA-A*68:01; [7]): 5.69; pKd (HLA-A*31:01; [7]): 5.90; pKd (HLA-A*03:01; [7]): 7.39; pKd (HLA-A*11:01; [7]): 7.33 |
| LLFVVEVVDK |  |  |  |  |  | pKd (HLA-A*33:01; [7]): 5.22; pKd (HLA-A*68:01; [7]): 5.88; pKd (HLA-A*31:01; [7]): 5.18; pKd (HLA-A*03:01; [7]): 5.36; pKd (HLA-A*11:01; [7]): 5.52 |
| LLLPSTDVNK | ≤ 4.15 | 5.53 | 5.52 | 7.39 | 7.42 |  |
| LLNSMMNRDK | ≤ 4.56 | ≤ 4.15 | 6.16 | 7.41 | 5.75 |  |
| LMNVITLVYK |  |  |  |  |  | pKd (HLA-A*33:01; [7]): 5.25; pKd (HLA-A*68:01; [7]): 6.13; pKd (HLA-A*31:01; [7]): 6.13; pKd (HLA-A*03:01; [7]): 7.97; pKd (HLA-A*11:01; [7]): 7.63 |
| LSARNKLFK | 4.79 | 7.83 | 6.77 | 8.66 | 9.27 |  |
| LSSIKSKSRR | 4.78 | 6.79 | 6.19 | ≤ 4.49 | 5.69 |  |
| LTMQRLLANH |  |  |  |  |  | pKd (HLA-A*33:01; [8]): 5.07; pKd (HLA-A*68:01; [8]): 5.79; pKd (HLA-A*31:01; [8]): 5.73; pKd (HLA-A*03:01; [8]): 6.06; pKd (HLA-A*11:01; [8]): 5.73 |
| MATMLEYVRY | 4.87 | 6.94 | 5.79 | 6.23 | 7.66 |  |
| MVNHSTYYV |  |  |  |  |  | pKd (HLA-A*33:01; [9]): 6.09; pKd (HLA-A*68:01; [9]): 7.02; pKd (HLA-A*31:01; [9]): 7.99; pKd (HLA-A*03:01; [9]): 7.02; pKd (HLA-A*11:01; [9]): 6.23 |

| Sequence | pKd (HLA-A*33:01; [1]) | pKd (HLA-A*68:01; [1]) | pKd (HLA-A*31:01; [1]) | pKd (HLA-A*03:01; [1]) | pKd (HLA-A*11:01; [1]) | also measured |
| --- | --- | --- | --- | --- | --- | --- |
| NAISSRVDRY | ≤ 4.15 | 4.97 | 4.96 | ≤ 4.37 | 4.74 |  |
| NFDYPFFRK | 6.51 | 6.41 | 7.04 | 5.04 | 6.72 |  |
| NFEALEATK | 5.97 | 6.15 | 5.17 | 5.38 | 7.07 |  |
| NFGTIILNK | 5.81 | 6.29 | 5.90 | 5.87 | 5.96 |  |
| NIADAARHY | 5.11 | 6.33 | 5.30 | 5.17 | 4.95 |  |
| NLEMIDERK | ≤ 4.11 | 7.31 | 5.02 | ≤ 4.15 | 5.95 |  |
| NSFIISTLNK | 5.35 | 7.72 | 6.19 | 6.38 | 9.35 |  |
| PIFSDLLKY | ≤ 4.11 | ≤ 4.43 | ≤ 4.24 | ≤ 4.53 | 5.18 |  |
| PISELSRLR | 6.04 | 6.17 | 6.32 | ≤ 4.11 | 5.27 |  |
| RICTREEFTR |  |  |  |  |  | pKd (HLA-A*31:01; [10]): ≤ 4.15 |
| RMLNILNRRR |  |  |  |  |  | pKd (HLA-A*31:01; [6]): 8.80 |
| RTLGRNKKPR |  |  |  |  |  | pKd (HLA-A*31:01; [3]): 8.08 |
| RTYSDPLALK |  |  |  |  |  | pKd (HLA-A*68:01; [3]): 7.53; pKd (HLA-A*03:01; [3]): 8.44; pKd (HLA-A*11:01; [3]): 7.44 |
| SFNMLKRAR |  |  |  |  |  | pKd (HLA-A*33:01; [10]): 8.00; pKd (HLA-A*31:01; [10]): ≤ 4.47 |
| SIPPTAGILK |  |  |  |  |  | pKd (HLA-A*03:01; [2]): 6.67; pKd (HLA-A*11:01; [2]): 7.78 |
| SSMVNGVVK |  |  |  |  |  | pKd (HLA-A*11:01; source organism: Dengue virus 1 Singapore/S275/1990): 7.13 |
| TSAYLISIFL |  |  |  |  |  | pKd (HLA-A*33:01; source organism: Lymphocytic choriomeningitis virus (strain WE)): 5.66 |
| TSEHGGRAYR |  |  |  |  |  | pKd (HLA-A*31:01; [3]): 7.14 |
| TSFYLISIFL |  |  |  |  |  | pKd (HLA-A*33:01; [11]): ≤ 4.51; pKd (HLA-A*03:01; [11]): 5.09 |
| VLKIVRNMEK |  |  |  |  |  | pKd (HLA-A*03:01; [6]): 7.08 |
| VSFLLLAGR |  |  |  |  |  | pKd (HLA-A*11:01; source organism: Mammarenavirus choriomeningitidis): 7.75 |
| VSILASSLLR |  |  |  |  |  | pKd (HLA-A*33:01; [3]): 6.70; pKd (HLA-A*68:01; [3]): 6.33; pKd (HLA-A*31:01; [3]): 6.06; pKd (HLA-A*11:01; [3]): 6.29 |
| WQLMYFHRR |  |  |  |  |  | pKd (HLA-A*31:01; [10]): 5.36 |
